# According to the supplement of paper PMC9112550, “Optimization of the antimicrobial peptide Bac7 by deep mutational scanning” (BMC Biology, 2022):
# Test system: Escherichia coli TOP10
# Test: shrunken log2 fold change of peptide-encoding DNA abundance (4.5 h post-induction vs induction); higher = less antimicrobial activity (less host growth inhibition)
# Conditions: time post-induction: 4.5 h; library: site-saturation at positions 5, 18, 19, 20
# 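Note: peptides expressed intracellularly from a pBAD plasmid library in pooled LB shake-flask culture, induced with 0.3% L-arabinose, DNA abundance read by NGS, three biological replicates, DESeq2 with apeglm shrinkage.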
row,Sequence,shrunken log2 fold change
1,RRIRSRPPRLPRPRPRPLMCPRP,-0.471
2,RRIRIRPPRLPRPRPRPFCRPRP,0.087
3,RRIRYRPPRLPRPRPRPNRVPRP,-0.172
4,RRIRHRPPRLPRPRPRPWFTPRP,-0.0018
5,RRIRPRPPRLPRPRPRPIIKPRP,-0.417
6,RRIRLRPPRLPRPRPRPHDHPRP,0.0691
7,RRIRFRPPRLPRPRPRPTHEPRP,0.171
8,RRIRFRPPRLPRPRPRPTEGPRP,-0.289
9,RRIRTRPPRLPRPRPRPTGGPRP,0.164
10,RRIRWRPPRLPRPRPRPHAAPRP,0.45
11,RRIRQRPPRLPRPRPRPSMCPRP,-0.194
12,RRIRLRPPRLPRPRPRPFFRPRP,-0.0862
13,RRIRNRPPRLPRPRPRPHYYPRP,-0.356
14,RRIRKRPPRLPRPRPRPTDHPRP,0.375
15,RRIRVRPPRLPRPRPRPMVPPRP,-0.189
16,RRIRWRPPRLPRPRPRPYATPRP,0.289
17,RRIRIRPPRLPRPRPRPINLPRP,-0.146
18,RRIRNRPPRLPRPRPRPRLNPRP,-0.212
19,RRIRMRPPRLPRPRPRPFAVPRP,-0.109
20,RRIRNRPPRLPRPRPRPWPQPRP,-0.064
21,RRIRLRPPRLPRPRPRPNTMPRP,-0.501
22,RRIRMRPPRLPRPRPRPTCHPRP,0.317
23,RRIRFRPPRLPRPRPRPFTIPRP,-0.313
24,RRIRKRPPRLPRPRPRPMGHPRP,0.000751
25,RRIRYRPPRLPRPRPRPKMIPRP,-0.537

row,Sequence,shrunken log2 fold change
1,RRIRGRPPRLPRPRPRPYTIPRP,0.187
2,RRIRARPPRLPRPRPRPYHYPRP,-0.0868
3,RRIRYRPPRLPRPRPRPEYHPRP,-0.0883
4,RRIRSRPPRLPRPRPRPDWPPRP,0.149
5,RRIRMRPPRLPRPRPRPEACPRP,3.9
6,RRIRVRPPRLPRPRPRPWNPPRP,-0.0803
7,RRIRMRPPRLPRPRPRPREMPRP,0.657
8,RRIRYRPPRLPRPRPRPLTVPRP,-0.146
9,RRIRLRPPRLPRPRPRPITPPRP,0.163
10,RRIRNRPPRLPRPRPRPANDPRP,-0.392
11,RRIRCRPPRLPRPRPRPKTPPRP,0.827
12,RRIRLRPPRLPRPRPRPWSKPRP,-0.547
13,RRIRNRPPRLPRPRPRPPCEPRP,0.0665
14,RRIRNRPPRLPRPRPRPIWSPRP,0.0615
15,RRIRCRPPRLPRPRPRPHHLPRP,-0.808
16,RRIRWRPPRLPRPRPRPFDHPRP,0.124
17,RRIRWRPPRLPRPRPRPFGIPRP,-0.115
18,RRIRFRPPRLPRPRPRPCAGPRP,-0.177
19,RRIRQRPPRLPRPRPRPHCLPRP,0.0735
20,RRIRDRPPRLPRPRPRPNWYPRP,-0.476
21,RRIRYRPPRLPRPRPRPHYAPRP,-0.0853
22,RRIRKRPPRLPRPRPRPMHSPRP,-0.0199
23,RRIRCRPPRLPRPRPRPSQGPRP,-0.137
24,RRIRHRPPRLPRPRPRPPCGPRP,0.176
25,RRIRCRPPRLPRPRPRPTHAPRP,0.975

row,Sequence,shrunken log2 fold change
1,RRIRLRPPRLPRPRPRPNTEPRP,0.019
2,RRIRMRPPRLPRPRPRPHHGPRP,-0.762
3,RRIRGRPPRLPRPRPRPDEMPRP,-0.0376
4,RRIRSRPPRLPRPRPRPYDIPRP,-0.0295
5,RRIRFRPPRLPRPRPRPVTEPRP,-0.0132
6,RRIRPRPPRLPRPRPRPLAMPRP,0.193
7,RRIRKRPPRLPRPRPRPEQEPRP,0.408
8,RRIRGRPPRLPRPRPRPITHPRP,0.0909
9,RRIRRRPPRLPRPRPRPESNPRP,0.219
10,RRIRTRPPRLPRPRPRPTTRPRP,0.223
11,RRIRLRPPRLPRPRPRPTDHPRP,-0.323
12,RRIRQRPPRLPRPRPRPTFNPRP,-0.201
13,RRIRVRPPRLPRPRPRPGEKPRP,-0.186
14,RRIRKRPPRLPRPRPRPCLMPRP,-0.0503
15,RRIRERPPRLPRPRPRPYFLPRP,-0.437
16,RRIRMRPPRLPRPRPRPLSKPRP,-0.103
17,RRIRARPPRLPRPRPRPQDSPRP,-0.0459
18,RRIRERPPRLPRPRPRPIKVPRP,-0.0179
19,RRIRMRPPRLPRPRPRPSVGPRP,0.357
20,RRIRWRPPRLPRPRPRPMDWPRP,0.482
21,RRIRKRPPRLPRPRPRPKDVPRP,-0.018
22,RRIRVRPPRLPRPRPRPMHEPRP,-0.044
23,RRIRARPPRLPRPRPRPEMHPRP,1.1
24,RRIRERPPRLPRPRPRPYTHPRP,-0.623
25,RRIRGRPPRLPRPRPRPVYGPRP,0.0598
